{"source": "patent US20230365658A1", "key": {"[1]": {"molecular_target": "COV2-RBD (rpk9) B.1.1.529 R346K (BA.1.1) (SARS-CoV-2)"}, "[2]": {"molecular_target": "SARS-CoV-2 spike (S) glycoprotein, D614G (SARS-CoV-2) (UniProt P0DTC2)", "experiment": "cell-based or functional assay"}}, "note": "Several values for one entry are separate records, joined by “and”; a condition that tells them apart may be missing. Equal values may be shown once.", "data": [{"substance": "COV2-2130 (antibody)", "values": [{"measurement": "EC50", "setting": "[1]", "value": "4.13 µg/mL and 3.54 µg/mL"}]}, {"substance": "rS2K146 (antibody)", "values": [{"measurement": "normalized pseudoneutralization IC50", "setting": "[2]", "value": 0.00656, "unit": "µg/mL"}]}]}
